Drawing on patent US20100093977A1, this text covers IgG concentration, fold lower degree of binding than the S171C mutant labelled via kappa cys171 and percent lower binding than kappa cys171-dye labelled S171C mutant IgG for four substances.

Experiment [1] deals with muc-1 on muc-1 positive human cancer cells (DU145; T47D) (human) (UniProt P15941). In words: flow cytometry, dye labelled IgG on muc-1 positive T47D (printed T74D) cells. On the technique in general: A flow cytometer gives signals particle by particle.
For experiment [2] the target is unchanged. Nature of the experiment: flow cytometry, dye labelled IgG 0.2 to 200 nM on DU145 cells.
The target is the same in experiment [3]. Nature of the experiment: flow cytometry, dye labelled IgG on DU145 cells, higher dose range.

Chain of UniProt P15941 (P15941 24-1255, stated change not applied): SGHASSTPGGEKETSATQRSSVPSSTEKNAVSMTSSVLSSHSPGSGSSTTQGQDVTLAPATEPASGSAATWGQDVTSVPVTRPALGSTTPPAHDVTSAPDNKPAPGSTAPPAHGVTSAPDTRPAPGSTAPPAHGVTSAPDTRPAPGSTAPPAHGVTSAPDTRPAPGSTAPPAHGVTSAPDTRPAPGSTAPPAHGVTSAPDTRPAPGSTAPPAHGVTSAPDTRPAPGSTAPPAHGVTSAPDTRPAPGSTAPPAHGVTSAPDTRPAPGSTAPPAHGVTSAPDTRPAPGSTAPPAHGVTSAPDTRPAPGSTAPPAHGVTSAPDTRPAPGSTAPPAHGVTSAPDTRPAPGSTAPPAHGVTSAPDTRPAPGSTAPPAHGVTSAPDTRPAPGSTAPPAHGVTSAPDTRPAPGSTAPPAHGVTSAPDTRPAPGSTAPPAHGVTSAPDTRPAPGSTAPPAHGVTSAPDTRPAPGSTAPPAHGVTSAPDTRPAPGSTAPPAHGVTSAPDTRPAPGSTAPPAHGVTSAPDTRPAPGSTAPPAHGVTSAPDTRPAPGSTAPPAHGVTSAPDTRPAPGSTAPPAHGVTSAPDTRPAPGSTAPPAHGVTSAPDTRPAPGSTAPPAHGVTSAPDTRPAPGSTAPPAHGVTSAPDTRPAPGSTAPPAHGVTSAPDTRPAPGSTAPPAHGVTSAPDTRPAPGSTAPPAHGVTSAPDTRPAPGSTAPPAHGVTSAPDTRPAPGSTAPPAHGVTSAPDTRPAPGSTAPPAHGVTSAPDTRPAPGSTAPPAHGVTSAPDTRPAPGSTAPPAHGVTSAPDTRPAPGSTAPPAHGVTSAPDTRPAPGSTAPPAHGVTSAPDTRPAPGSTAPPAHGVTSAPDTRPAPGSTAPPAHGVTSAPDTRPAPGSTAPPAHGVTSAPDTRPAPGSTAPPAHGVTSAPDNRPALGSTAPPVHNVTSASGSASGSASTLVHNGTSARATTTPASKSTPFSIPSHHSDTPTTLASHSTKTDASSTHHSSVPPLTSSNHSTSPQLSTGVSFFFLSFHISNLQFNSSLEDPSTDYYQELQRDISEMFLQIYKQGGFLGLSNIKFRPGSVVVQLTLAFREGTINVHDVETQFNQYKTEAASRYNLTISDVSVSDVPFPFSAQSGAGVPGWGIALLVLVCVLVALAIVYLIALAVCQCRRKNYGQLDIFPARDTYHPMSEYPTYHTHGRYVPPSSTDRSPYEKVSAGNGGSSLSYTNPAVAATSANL

The substance “hCTM01 S171C mutant IgG reduced with 5 mM 2-ME and labelled with AlexaFluor488-C5-maleimide (approximately 4 dyes per IgG; 3.9 dyes per IgG in FIG. 4) (antibody)” yielded an IgG concentration at which binding plateaus in experiment [1] above 100 nM.
Consider “wild type CTM01 IgG labelled with AlexaFluor 488-C5-maleimide under identical conditions (0.7 dyes per IgG) (antibody)”, for which the fold lower degree of binding than the S171C mutant labelled via kappa cys171 in experiment [2] amounted to 6 fold.
In the case of “wild type hCTM01 IgG reduced with 20 mM 2-ME and labelled with AlexaFluor488-C5-maleimide (approximately 4 dyes per IgG; 3.6 dyes per IgG in FIG. 4) (antibody)”, in experiment [1], the IgG concentration at which binding plateaus was found to be 20 nM.
“wild type CTM01 IgG labelled via lysine modification with AlexaFluor488-NHS ester (2 dyes per IgG) (antibody)” yielded a percent lower binding than kappa cys171-dye labelled S171C mutant IgG in experiment [3] of 8%.
